Measurements published in patent US20210292393A1 (published 2021).

Experiments:
[1] = target: SARS-CoV-2 spike (S) protein, full length, wild type (SARS-CoV-2, UniProt P0DTC2 14-1208)
[2] = target: SARS-CoV-2 full length spike (S) protein, wild type, expressed on the surface of CHO cells (SARS-CoV-2, UniProt P0DTC2 14-1273)
[3] = target: SARS-CoV-2 full length spike protein (wild type), conjugated to beads (SARS-CoV-2, UniProt P0DTC2 14-1208)

Binder	median fluorescence intensity, fold over isotype control [2] [fold over isotype]	binding signal, bead assay [3] [fold over isotype]	also measured
anti-SARS-CoV-2 antibody 456 (antibody, V domains shown) VH: QVQLQQWGAGLLKPSETLSLTCAVYGGSFSGYYWSWIRQPPGKGLEWIGEINHSGSTNYNPSLKSRVTISVDTSKNQFSLKLSSVTAADTAVYYCARDGSGSYYLSYYFDYWGQGTLVTVSS VL: not shown	–	–	median fluorescence fold over isotype [1]: 595 fold over isotype
antibody 547 (antibody, V domains shown) VH: QVHLVESGGGVVQPGRSLRLSCAASGFALSSYAMHWVRQPPGKGLEWVALISYDGSVKKYADSVKGRITVSGDNSRNTLHLQINSLRADDTAVYYCVRGGVSGPNSFDLWGHGTMVTVSS VL: DVVLTQSPLSLPVTLGQPASISCRSSQSLEYSVGNTYVNWFQQRPGQSPRRLIYKVSNRDSGVPDRFSGSGSGTDFTLQISRVEADDVGIYYCMQGTHWPVTFGQGTKVEIK	10.6	–	–
antibody 556 (antibody, V domains shown) VH: QVQLVESGGGVVQPGRSLRLSCAASGFTFSSYAMHWVRQAPGKGLEWVAVISYDGSDKYYADSVKGRVTISRDNSKNTLYLQMNSLRVEDTAVFYCAKDDCSGGVCFPDYWGQGTLVTVSS VL: QSALTQPASVSGSPGQSITISCTGTSSDVGGYNYVSWYQQHPGKAPKLMIYEVSIRPSGVSNRFSGSKSGNTASLTISGLQAEDEAAYYCSSYTSSSTLVFGGGTKLTVL	7.59	–	–
antibody 378 (antibody, V domains shown) VH: QVQLVQSGAEVKKPGASVKVSCKASGYTFTSYYMHWVRQAPGQGLEWMGIINPSGGSTSYAQKFQGRVTMTRDTSTSTVYMELSSLRSEDTAVYYCARDSGGMDDFWSGYYSPGGDYWGQGTLVTVSS VL: QSALTQPASVSGSPGQSITISCTGTSSDVGSYNLVSWYQQHPGKAPKLMIYEGSKRPSGVSNRFSGSKSGNTASLTISGLQAEDEADYYCCSYAGSSTWVFGGGTKLTVL	–	526	–
antibody 367 (antibody, V domains shown) VH: QVQLVQSGAEVKKPGASVKVSCKASGYTFTGYYIHWVRQAPGQGLEWMGWINPNSGGTIYAQKFQGRVTMTRDTSISTAYMELSRLTSDDTAVYSCAREPYYDILTGYYAPRRYFDYWGQGTLVTVSS VL: QSALTQPASVSGSPGQSITISCTGTSSDVGSYNYVSWYLQHPGKAPKLMIYDVSNRPSGVSNRFSGSKSGNTASLTISGLQAEDEADFYCSSYTSRSTYVFGTGTKVTVL	–	1090	–
anti-SARS-CoV-2 antibody 470 (antibody, V domains shown) VH: not shown VL: QSALTQPASVSGSPGQSITISCTGTSSDVGSYNLVSWYQQHPGKAPKLMIYEVSKRPSGVSNRFSGSKSGNTASLTISGLQAEDEADYYCCSYAGSSTLVFGGGTKLTVL	–	–	median fluorescence fold over isotype [1]: 1180 fold over isotype
antibody 565 (antibody, V domains shown) VH: EVQLVESGGGLVQPGGSLRLSCTASGFTLSDHYMDWVRQAPGKGLEWVARTRNKVNSYSTEYAASVKGRFSMSRDDSKNSLYLQMTRLQTDDTAVYYCARSLMILGARGASDYWGQGTLVTVSS VL: DIQMTQSPSTLSASAGDRVTITCRASQNIDSWLAWYQQHPGKAPNLLIYKASFLQSGVPSRFSGSGSGTEFTLTISSLQPDDFATYYCQQYNSYPVTFGQGTRLEIK	1.11	–	–
antibody 560 (antibody, V domains shown) VH: EVQLVESGGGLVQPGGSLRLSCAASGFTISSNYMSWVRQAPGKGLEWVSVIYSGGSTYYADSVKGRFTISRDNSKNTLYLQMNSLRAEDTAVYYCAREEGEWEKDYYGMDVWGQGTTVTVSS VL: not shown	22.8	–	–
antibody 548 (antibody, V domains shown) VH: QVQLVESGGGVVQPGRSLRLSCAASGFTFSSYAMHWVRQAPGKGLEWVAVISYDGSNKYYADSVKGRFTISRDNSKNTLYLQMNNLRAEDTAVYYCAKSGSGSYLSAFDIWGQGTMVTVSS VL: not shown	9.26	–	–
antibody 385 (antibody, V domains shown) VH: QVQLVESGGGVVQPGRSLRLSCAASGFTFSSYAIHWVRQAPGKGLEWVAVISYDGSNKYYADSVKGRFTISRDNSKNTLYLQMNSLRAEDTAVYYCARPRSGSYWGAFDIWGQGTMVTVSS VL: QSVLTQPPSVSGAPGQRVTISCTGSSSNIGARYDVHWYQQLPGTAPKLLIYGNSNRPSGVPDRFSGSKSGTSASLAITGLQAEDEADYYCQSYDSSLRGVFGGGTKLTVL	–	602	–
antibody 569 (antibody, V domains shown) VH: QVQLVESGGGVVQPGRSLRLSCAASGFTFSSYAMHWVRQAPGKGLEWVAVISYDGSNKYYADSVKGRFTISRDNSKNTLYLQMNSLRAEDTAVYYCARASSGGYQGPFDPWGQGTLVTVSS VL: EIVLTQSPATLSLSPGERATLSCRASQSVSSYLAWYQQKPGQAPRLLIYDASNRATGIPARFSGSGSGTDFTLTISSLEPEDFAVYYCQQRSSPFGPGTKVDIK	8.78	–	–
anti-SARS-CoV-2 antibody 471 (antibody, V domains shown) VH: QVQLVESGGGVVQPGRSLRLSCAASGFTFSSYAMHWVRQAPGKGLEWVAVISYDGSNKYYADSVKGRFTISRDNSKNTLYLQMNSLRAEDTAVYYCAKQYSPYCSGGSCYSGASDYWGQGTLVTVSS VL: not shown	–	–	median fluorescence fold over isotype [1]: 770 fold over isotype
antibody 372 (antibody, V domains shown) VH: QVQLVESGGGVVQPGRSLRLSCAASGFTFSSYAMHWVRQAPGKGLEWVAVISYDGSNKYYADSVKGRFTISRDNSKNTLYLQMNSLRAEDTAVYYCARDLGTSALLWFGELFLNYGMDVWGQGTTVTVSS VL: QSALTQPRSVSGSPGQSVTISCTGTSSDVGGYNYVSWYQQHPGKAPKLMIYDVSKRPSGVPDRFSGSKSGNTASLTISGLQAEDEADYYCCSYAGSPILVFGGGTKLTVL	–	823	–
antibody 405 (antibody, V domains shown) VH: not shown VL: QSALTQPRSVSGSPGQSVTISCTGTSSDVGGYNYVSWYQQHPGKAPKLMIYDVSKRPSGVPDRFSGSKSGNTASLTISGLQAEDEADYYCCSYAGSYNVVFGGGTKLTVL	–	487	–
antibody 366 (antibody, V domains shown) VH: QVQLVESGGGVVQPGRSLRLSCAASGFTFSSYAMHWVRQAPGKGLEWVAVISYDGSNKYYADSVKGRFTISRDNSKNTLYLQMNSLRAEDTAVYYCARGLVGYNWFDPWGQGTLVTVSS VL: DIQMTQSPSSVSASVGDRVTITCRASQGISSWLAWYQQKPGKAPKLLIYAASSLQSGVPSRFSGSGSGTDFTLTISSLQPEDFATYYCQQANSFTFGPGTKVDIK	–	553	–
antibody 571 (antibody, V domains shown) VH: EVQLVESGGGLVQPGGSLRLSCAASGFTFSTYWMTWVRQAPGKGLEWVANIKHDGSGKYHVDSVKGRFTISRDNAKNSLYLQMNSLRAEDTAVYYCTRDEGGWYDYWGQGTLVTVSS VL: QSALTQPASVSGSPGQSITISCTGTSSDVGSYNPVSWYQQHPGKAPKVMIYEGSKRPSGVSNRFSGSKSGNTASLTISGLQAEDEADYYCCSYARSSTFVVFGGGTKLTVL	8.3	–	–
antibody 563 (antibody, V domains shown) VH: QVQLVESGGGVVQPGRSLRLSCAASGFTFSSYAMHWVRQAPGKGLEWVAVISDDGSNKYYADSVKGRFTISRDNSKNTLYLQMNSLRAEDTAVYYCARDIVATIRRLFDYWGQGTLVTVSS VL: not shown	9.67	–	–
antibody 409 (antibody, V domains shown) VH: QVTLRESGPALVKPTQTLTLTCTFSGFSLSTSGMCVSWIRQPPGKALEWLALIDWDDDKYYSTSLKTRLTISKDTSKNQVVLTMTNMDPVDTATYYCARTTYYYVSGRRAEFDPWGQGTLVTVSS VL: NFMLTQPHSVSESPGKTVTISCTGSSGSIASNYVQWYQQRPGSAPTTVIYEDNQRPSGVPDRFSGSIDSSSNSASLTISGLKTEDEADYYCQSYDSSNQGVFGGGTKLTVL	–	552	–
antibody 566 (antibody, V domains shown) VH: QVQLVQSGAEVKKPGASVKVSCKASGYTFTSYAMHWVRQAPGQRLEWMGWINAGNGNTKYSQKFQGRVTITRDTSASTAYMELSSLRSEDTAVYYCARDLGVAVTLHPADFDYWGQGTLVTVSS VL: QSVLTQPPSVSGAPGQRVTISCTGSSSNIGAGYDVHWYQQLPGTAPKLLIYDNSNRPSGVPDRFSGSKSGTSASLAITGLQAEDEADYYCQSYDSSLSAVVFGGGTKLTVL	31.5	–	–
antibody 564 (antibody, V domains shown) VH: QVHLVESGGGVVQPGKSLRLSCAASGFIFSSFGMHWVRQPPGKGLEWLAVVSYDGSVTKYSDSFEGRFTISRDNSKNTLYLQMDSLRPEDTAVYYCAKGQGTNLLHYWGQGILVTVSS VL: DVVLSQSPLSLPVTLGQPASISCRSSESLVYTDGDTYLHWFHQRPGQSPRRLIFKVSHRESGVPDRISGSGSGTDFTLKISRVEAEDVGVYYCMQGTHWPFTFGPGTKVDIK	10.8	–	–
antibody 380 (antibody, V domains shown) VH: QVQLVESGGGVVQPGRSLRLSCAASGFTLKNYGMHWVRQAPGKGLEWVIVLSFDGSDEYKADSVRGRFTVSRDNSKNTLFLQMNSLRPDDTAVYYCAREQPTMIEGGRGPFDIWGQGTMVTVSS VL: EVVMTQSPATLSVSPGDRATLSCRASQGVNSNLAWYQQKPGQAPRLLIYAASTRATGIPARFSASGSGTHFTLTISSLQSEDFAVYYCLQYNNWPPWTFGQGTKLEIK	–	1.15	–
antibody 407 (antibody, V domains shown) VH: QVQLVESGGGVVQPGRSLRLSCAASGFTFSSYGMHWVRQAPGKGLEWVAVISYDGSNKYYADSVKGRFTISRDNSKNTLYLQMNSLRAEDTAVYYCAKCGWDYDFWVGQGYGMDVWGQGTTVTVSS VL: not shown	–	785	–
antibody 395 (antibody, V domains shown) VH: QVQLVQSGSELKKPGASVKLSCQASGYTFSNHAMNWVRQAPGQGLEWMGWINTNTGNPTYAQGFTGRFVFSLDTSVGTAYLHISSLKAEDTAFYYCARASARPGVATNLDFWGQGTLVVVSS VL: DIQMTQSPSSLSASVGDRVTITCRTSQNIDNYLNWYQQKPGKAPNLLIYAASRLHSGVPSRFSGSGSGTDFTLIISSLQPEDLATYYCQQSYSNPLTFGPGTKVDIR	–	592	–
